# Assay results as given in the supplement of paper PMC7125110.
# ± gives the standard error. This sample holds only a part of the variants without activity.
# B1: glmS ribozyme (parent)
# chain: AUAAAAGCGCCAGAACUACAGAAAUGUAGUUGACGAGGAGGAGGUUUAUCGAAUUUUCGGCGGAUGCCUCCAAA
# Variants of: B1
# Test: self-cleavage kobs at 10000 uM GlcN6P; higher = faster cleavage; RNA array
# Conditions: with glucosamine-6-phosphate
# Method in brief: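 Over ~14 h at 37 °C, tiles were imaged as glucosamine-6-phosphate (40 μM to 10 mM) in HEPES/KCl/Mg(OAc)2 buffer flowed across sequenced MiSeq chips. The chips carried barcoded ribozyme variants transcribed in situ by E. coli RNA polymerase and tracked with a hybridised Cy3 probe. After normalisation to baseline and to non-cleaving reference variants, one- or two-exponential decay fits of per-tile medians gave kobs. kcat and KM followed from weighted Michaelis–Menten fits across concentrations.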
row,Variant,self-cleavage kobs at 10000 uM GlcN6P
1,G29A U49G U56G,3.31e-05 ± 1.3e-05 s⁻¹
2,A12C G60U C61U,< 1e-05 s⁻¹
3,A12G G21U A53U U69A,0.0001 ± 2.2e-05 s⁻¹
4,C11G G40C U54A C70U C71G,< 1e-05 s⁻¹
5,C10U C34U A48C,< 1e-05 s⁻¹
6,G29A G40C G44A,< 1e-05 s⁻¹
7,U31A A33U G35U G38U,< 1e-05 s⁻¹
8,G13U U54G C67U,0.000238 ± 4.9e-05 s⁻¹
9,A12U A14C U31C,0.00145 ± 0.00047 s⁻¹
10,G32U U49G A64G,0.000122 ± 2.8e-05 s⁻¹
11,U30G U46C G51U C71U,< 1e-05 s⁻¹
12,C11A A15C U54G,5.7e-05 ± 1.8e-05 s⁻¹
13,A14G C16U A39U,0.0817 ± 0.036 s⁻¹
14,C16A U55A C67G,5.54e-05 ± 1.9e-05 s⁻¹
15,C11U A12U U46G C70U,0.000953 ± 0.00017 s⁻¹
16,G29A U56G C67A,0.000277 ± 5.7e-05 s⁻¹
17,A14C A39U A53G,0.00135 ± 0.0004 s⁻¹
18,A15C U30G C68G,0.000435 ± 0.00015 s⁻¹
19,U30C A36G U54A,< 1e-05 s⁻¹
20,A15U G29C C58A,6.87e-05 ± 2.7e-05 s⁻¹
21,C11U G66U C71G,< 1e-05 s⁻¹
22,A15C U46C G62U,< 1e-05 s⁻¹
23,A12U G44C A53G,0.000245 ± 4.7e-05 s⁻¹
24,A14U G51A U57C,< 1e-05 s⁻¹

row,Variant,self-cleavage kobs at 10000 uM GlcN6P
1,A12C G37A U47G,0.000241 ± 4.8e-05 s⁻¹
2,A14G G32C G40U A42G,6.25e-05 ± 2.1e-05 s⁻¹
3,G29C U45A C68U,0.000376 ± 0.00011 s⁻¹
4,C16A U49G,2.8e-05 ± 1.1e-05 s⁻¹
5,G32U G37U G43A A52G C67U,< 1e-05 s⁻¹
6,G13C A15C U49C,< 1e-05 s⁻¹
7,G35A A36U G43U,< 1e-05 s⁻¹
8,C11U G29U C70A,8.25e-05 ± 2.8e-05 s⁻¹
9,A36C U46G U49G,0.000106 ± 2.7e-05 s⁻¹
10,G21A A33U,0.00012 ± 2.2e-05 s⁻¹
11,A15U G44U A64U,< 1e-05 s⁻¹
12,C34U A36C,< 1e-05 s⁻¹
13,G32C A36C C67U,< 1e-05 s⁻¹
14,U31G U55G C58U,7.92e-05 ± 1.7e-05 s⁻¹
15,A14C C58U,8.12e-05 ± 1.2e-05 s⁻¹
16,A12C A14G U47A A53G C58U,3.29e-05 ± 1.6e-05 s⁻¹
17,C11U A42C U69A,9.21e-05 ± 2.5e-05 s⁻¹
18,G13A G44C C67A,9.29e-05 ± 1.9e-05 s⁻¹
19,C16A A36C U57A C61U C67U,< 1e-05 s⁻¹
20,A14G A42U A52G,6.3e-05 ± 1.1e-05 s⁻¹
21,A14U G37U A48G U49C C71U,< 1e-05 s⁻¹
22,A15U G43A G44C U45G,< 1e-05 s⁻¹
23,C16G G32U C58U,0.000423 ± 0.00013 s⁻¹
24,C11G G32U G41U G43U A52C C67A U69A,< 1e-05 s⁻¹

row,Variant,self-cleavage kobs at 10000 uM GlcN6P
1,G29C U69C C71U,4.54e-05 ± 2.1e-05 s⁻¹
2,A12C G66C,0.000754 ± 0.00033 s⁻¹
3,U31C A42C A64G,< 1e-05 s⁻¹
4,A12U G44U G51A,< 1e-05 s⁻¹
5,G13A G35A G60U C70A,< 1e-05 s⁻¹
6,G29A G40U C68G,< 1e-05 s⁻¹
7,A14G U31C C58A C68U C70U,3.74e-05 ± 1.6e-05 s⁻¹
8,U31G A33U A53G,2.81e-05 ± 1.3e-05 s⁻¹
9,A15U C50A C67U,< 1e-05 s⁻¹
10,U30A C34G G43U C61U G63U,< 1e-05 s⁻¹
11,C16U G35C C58A,< 1e-05 s⁻¹
12,A20C G44U,0.000286 ± 8.9e-05 s⁻¹
13,A15U C70U C71U,6.65e-05 ± 1.8e-05 s⁻¹
14,G29A C34G C67A,< 1e-05 s⁻¹
15,A15C G29C G59A U65A,< 1e-05 s⁻¹
16,C11U A15U A42U,< 1e-05 s⁻¹
17,A33U U57C C67G U69A,< 1e-05 s⁻¹
18,U30G G51U U55C C61A,< 1e-05 s⁻¹
19,C10G G37A G60U,< 1e-05 s⁻¹
20,G29U A53C G66A,0.000258 ± 4.6e-05 s⁻¹
21,C16A U31G C68U,4.49e-05 ± 1.5e-05 s⁻¹
22,C16G U46C C70U,0.000325 ± 7.4e-05 s⁻¹
23,G35U A53U U56A,< 1e-05 s⁻¹
24,A33C U45G,4.71e-05 ± 1e-05 s⁻¹

row,Variant,self-cleavage kobs at 10000 uM GlcN6P
1,C34U G38A C70G,3.44e-05 ± 1.7e-05 s⁻¹
2,G29U U46G C61G G66A,< 1e-05 s⁻¹
3,A15U A39U U55A,0.00299 ± 0.00069 s⁻¹
4,A15G A42U U69A,0.00624 ± 0.0018 s⁻¹
5,A12C G51A G59U G66U,< 1e-05 s⁻¹
6,C11G A15G G40C U46A G62A A64U,< 1e-05 s⁻¹
7,C11U G38U A42G,< 1e-05 s⁻¹
8,A14C G32A U69G,7e-05 ± 1.6e-05 s⁻¹
9,A33C U45C U65C,< 1e-05 s⁻¹
10,A36C U47G U65G,< 1e-05 s⁻¹
11,C34U U45A C50A,< 1e-05 s⁻¹
12,G32A U55A C67G,8.33e-05 ± 2.7e-05 s⁻¹
13,A12G C61A,< 1e-05 s⁻¹
14,A12U A64U C67U,0.00017 ± 3e-05 s⁻¹
15,C10U A33G C68U,< 1e-05 s⁻¹
16,G32U U46A U56G,3.85e-05 ± 1.2e-05 s⁻¹
17,U30G U49G G63C,< 1e-05 s⁻¹
18,G13C U47G C70U,5.23e-05 ± 1.4e-05 s⁻¹
19,C11G A15U C50A G51U C70A,4.33e-05 ± 1.2e-05 s⁻¹
20,C16A A33C A42C C71U,< 1e-05 s⁻¹
21,A12C C16G G37A C67A C71U,< 1e-05 s⁻¹
22,A14G A15G A33U,8.09e-05 ± 1.9e-05 s⁻¹
23,U31C G66C,8.11e-05 ± 1.3e-05 s⁻¹
24,C11U A14C A15U G38U C68G,7.05e-05 ± 3e-05 s⁻¹

row,Variant,self-cleavage kobs at 10000 uM GlcN6P
1,U31C A39C G40U G60U,< 1e-05 s⁻¹
2,A12C A15U C58G,0.00016 ± 3.5e-05 s⁻¹
3,A14U U30C G38C,< 1e-05 s⁻¹
4,A33G G40U A52G C58A,< 1e-05 s⁻¹
5,A12G U30A C34U U45G C67A,< 1e-05 s⁻¹
6,C34U U49C C50G C61U C68G C71G,0.000303 ± 7.9e-05 s⁻¹
7,A15G A52G G66A C68U,0.000149 ± 2.8e-05 s⁻¹
8,G32A A39U C68U,0.000655 ± 0.00014 s⁻¹
9,U30G A39U C70A,7.17e-05 ± 1.8e-05 s⁻¹
10,A33C G43U U49C C68U,< 1e-05 s⁻¹
11,C16A G29A U46C,0.00011 ± 1.8e-05 s⁻¹
12,A12C A64U,3.59e-05 ± 5.3e-06 s⁻¹
13,A15G U30G G40U,0.000863 ± 0.00017 s⁻¹
14,G32U U56A C58A C68A,0.000114 ± 2.2e-05 s⁻¹
15,G13U A39U C71U,0.000606 ± 0.00012 s⁻¹
16,A12U C16A U65C,5.77e-05 ± 1.6e-05 s⁻¹
17,U30C G35C G41U C71A,< 1e-05 s⁻¹
18,A15G G41C U47G C61U U65A,< 1e-05 s⁻¹
19,U30G A33C A48C C71U,< 1e-05 s⁻¹
20,C11G G38U G41A C68G,< 1e-05 s⁻¹
21,G35U U45G C67G,< 1e-05 s⁻¹
22,C16G A33U G35U G63U A64C,< 1e-05 s⁻¹
23,G13U G40U C61U C68U,< 1e-05 s⁻¹
24,A23C C71A,0.00399 ± 0.00084 s⁻¹

row,Variant,self-cleavage kobs at 10000 uM GlcN6P
1,A14C G60U C70A,< 1e-05 s⁻¹
2,G29C U46G C67U,0.000125 ± 3.3e-05 s⁻¹
3,G35C G51C C58A,< 1e-05 s⁻¹
4,G29A A52G C67G,5.89e-05 ± 1.1e-05 s⁻¹
5,G13U U55G C67U,0.0003 ± 6.1e-05 s⁻¹
6,U31A G41U A42U G62A,< 1e-05 s⁻¹
7,U30A G32U C67A,0.000213 ± 6e-05 s⁻¹
8,A14U A39C G66U,0.000116 ± 2.2e-05 s⁻¹
9,G13U A39U A53U C67G,4.97e-05 ± 1.8e-05 s⁻¹
10,C34A A36C G60A,< 1e-05 s⁻¹
11,A15U U49A A52G,< 1e-05 s⁻¹
12,C34A C67G C70A,< 1e-05 s⁻¹
13,C11U G40A A52C G62C,< 1e-05 s⁻¹
14,A15G U54C C71G,0.000924 ± 0.00024 s⁻¹
15,G35A A52C U55C,< 1e-05 s⁻¹
16,C16A U31A C70U,0.00113 ± 0.00026 s⁻¹
17,A15C U30C A39G,0.000286 ± 6.4e-05 s⁻¹
18,A15G U30G U46C,0.000407 ± 0.0001 s⁻¹
19,A15U C16U G29U C67A,0.00151 ± 0.00034 s⁻¹
20,A12G U54C,0.001 ± 0.00011 s⁻¹
21,G35A G60C C61G A64C G66A,< 1e-05 s⁻¹
22,A14U A15C G32A A42U A53U C70U,< 1e-05 s⁻¹
23,C16G A39U U47A C50G,< 1e-05 s⁻¹
24,G13C G38A G43C C61U,< 1e-05 s⁻¹

row,Variant,self-cleavage kobs at 10000 uM GlcN6P
1,C11U G32U U45G C61G,< 1e-05 s⁻¹
2,A33U C58G C67U C68A,5.11e-05 ± 1.6e-05 s⁻¹
3,C11U G32U C61G U69C,0.00014 ± 3.4e-05 s⁻¹
4,U31G C58U,9.69e-05 ± 1.1e-05 s⁻¹
5,G35U G41U A42C G62C C70A,< 1e-05 s⁻¹
6,U31C G40C A53G,0.000261 ± 9.7e-05 s⁻¹
7,C11G U30C A42C U55G C61A G62A C71G,< 1e-05 s⁻¹
8,A36G A48C C68A,< 1e-05 s⁻¹
9,U30A U47G A53G,0.000616 ± 0.0001 s⁻¹
10,A14U U30A G40C,5.69e-05 ± 1.4e-05 s⁻¹
11,U31C C58U G63C,< 1e-05 s⁻¹
12,U31C A48C,3.72e-05 ± 7.7e-06 s⁻¹
13,A18C A33C,0.000165 ± 4.4e-05 s⁻¹
14,G32A U55C G60U C61U,< 1e-05 s⁻¹
15,C11A U47C U55A G59U,0.00336 ± 0.00065 s⁻¹
16,A12G G13U G40A,4.65e-05 ± 1.4e-05 s⁻¹
17,C34A G35A G40U G41C U46G,< 1e-05 s⁻¹
18,G13A G37A,4.89e-05 ± 1.1e-05 s⁻¹
19,G13A C34G A52C,< 1e-05 s⁻¹
20,U31G U47C C61U C71U,< 1e-05 s⁻¹
21,A12U A15C C16U,0.0012 ± 0.00023 s⁻¹
22,G13U C34U G37U A53U,< 1e-05 s⁻¹
23,C16U U31G C70A,8.19e-05 ± 1.7e-05 s⁻¹
